According to patent US20140105889A1 (published 2014):
Each block holds one binder with its values, some of them ahead of it.

Key:
human FcγRIIIa(F) [1] = target: T1, human FcγRIIIa(F) (human, UniProt P08637 17-208, limits assumed); experiment: SPR (Biacore), antibody captured, FcγR as analyte
T1 construct: also called FcgRIIIaF; FcγRIIIa allotype F158
T1 sequence (P08637 other isoform, or with tags, fused parts or gaps limits assumed): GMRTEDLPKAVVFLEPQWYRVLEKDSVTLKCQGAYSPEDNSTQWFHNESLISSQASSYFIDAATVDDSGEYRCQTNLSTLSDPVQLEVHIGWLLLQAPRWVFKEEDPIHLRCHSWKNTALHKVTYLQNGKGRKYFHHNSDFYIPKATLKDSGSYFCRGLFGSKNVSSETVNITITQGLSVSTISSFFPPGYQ
Description: (§1) Interaction between each modified antibody and Fcγ receptor prepared in the manner described above was analyzed using the Biacore T100 (GE Healthcare), Biacore T200 (GE Healthcare), Biacore A100 or Biacore 4000. HBS-EP+ (GE Healthcare) was used for the running buffer, and measurements were carried out at 25° C. The chips used were chips in which antigen peptides, Protein A (Thermo Scientific), Protein A/G (Thermo Scientific) or Protein L (ACTIGEN or BioVision) were immobilized on the Series S Sensor Chip CM5 (GE Healthcare) or Series S Sensor Chip CM4 (GE Healthcare) by amine coupling, or chips in which preliminarily biotinylated antigen peptides were allowed to interact and then immobilized on the Series S Sensor Chip SA (certified) (GE Healthcare). The target antibodies were captured on these sensor chips, Fcγ receptor diluted with the running buffer was allowed to interact, followed by measurement of the amount of bound antibody. The amounts bound were compared between antibodies. However, since the amount of Fcγ receptor bound depends on the amount of captured antibody, the values used for comparison were first corrected by dividing the amount of Fcγ receptor bound by the captured amount of each antibody. Through reaction with 10 mM glycine-HCl at pH 1.5, the sensor chips were regenerated by washing off antibody captured on the sensor chips and used repeatedly.
(§2) Binding strength was evaluated according to the following method based on the results of analyzing the interaction with each FcγR. […] That value was then further multiplied by 100, and the resulting value was used as an indicator of relative binding activity to each FcγR.

human FcγRIIIa(F) [2] = target: T2, human FcγRIIIa(F) (human, UniProt P08637 17-208, limits assumed); experiment: SPR (Biacore), captured antibody, FcγR analyte; bound amount relative to GpH7-B3/GpL16-k0 x100;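 further: receptor response divided by the antibody amount captured on the chip before comparison with the reference antibody, measured at 25 °C in HBS-EP+ running buffer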
T2 construct: also called FcgRIIIaF; FcγRIIIa allotype F158
T2 sequence (P08637 other isoform, or with tags, fused parts or gaps limits assumed): as above
Description: as §1, §2

B1: GpH7-B3 Q295N / GpL16-k0 (antibody, human IgG1)
heavy: not shown
light: DIVMTQSPLSLPVTPGEPASISCQASESLVHSNRNTYLHWYLQKPGQSPQLLIYKVSNRFSGVPDRFSGSGSGTDFTLKISRVEAEDVGVYYCSQNTHVPPTFGQGTKVEIE
notes: B3 variant: anti-glypican-3 IgG1 (constant region B3 = G1d with K439E) with one substitution, EU numbering; also called B3 variant Q295N; copies: 2 + 2
relative binding activity (amount bound / amount bound by GpH7-B3/GpL16-k0 x100) (human FcγRIIIa(F) [1]): 68 % of GpH7-B3/GpL16-k0

B4: GpH7-B3 Q295W / GpL16-k0 (antibody, human IgG1)
heavy: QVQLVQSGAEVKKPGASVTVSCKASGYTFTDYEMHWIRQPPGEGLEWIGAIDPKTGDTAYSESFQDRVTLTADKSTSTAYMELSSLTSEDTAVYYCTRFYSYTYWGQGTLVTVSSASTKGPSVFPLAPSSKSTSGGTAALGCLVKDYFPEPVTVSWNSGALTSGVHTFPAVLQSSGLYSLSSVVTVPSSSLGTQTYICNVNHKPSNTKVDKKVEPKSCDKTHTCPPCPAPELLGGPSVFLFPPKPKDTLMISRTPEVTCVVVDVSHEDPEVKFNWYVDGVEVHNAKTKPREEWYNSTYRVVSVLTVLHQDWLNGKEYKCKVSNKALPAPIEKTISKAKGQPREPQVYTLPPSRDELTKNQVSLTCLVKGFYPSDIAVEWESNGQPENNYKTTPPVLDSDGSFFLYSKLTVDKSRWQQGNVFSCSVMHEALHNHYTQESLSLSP
light: B1 light
notes: B3 variant: anti-glypican-3 IgG1 (constant region B3 = G1d with K439E) with one substitution, EU numbering; also called B3 variant Q295W; copies: 2 + 2
relative binding activity (amount bound / amount bound by GpH7-B3/GpL16-k0 x100) (human FcγRIIIa(F) [1]): 10 % of GpH7-B3/GpL16-k0

B6: GpH7-B3 P271W / GpL16-k0 (antibody, human IgG1)
heavy: not shown
light: B1 light
notes: B3 variant: anti-glypican-3 IgG1 (constant region B3 = G1d with K439E) with one substitution, EU numbering; also called B3 variant P271W; copies: 2 + 2
relative binding activity (amount bound / amount bound by GpH7-B3/GpL16-k0 x100) (human FcγRIIIa(F) [1]): 57 % of GpH7-B3/GpL16-k0

B7: GpH7-B3 Q295Y / GpL16-k0 (antibody, human IgG1)
heavy: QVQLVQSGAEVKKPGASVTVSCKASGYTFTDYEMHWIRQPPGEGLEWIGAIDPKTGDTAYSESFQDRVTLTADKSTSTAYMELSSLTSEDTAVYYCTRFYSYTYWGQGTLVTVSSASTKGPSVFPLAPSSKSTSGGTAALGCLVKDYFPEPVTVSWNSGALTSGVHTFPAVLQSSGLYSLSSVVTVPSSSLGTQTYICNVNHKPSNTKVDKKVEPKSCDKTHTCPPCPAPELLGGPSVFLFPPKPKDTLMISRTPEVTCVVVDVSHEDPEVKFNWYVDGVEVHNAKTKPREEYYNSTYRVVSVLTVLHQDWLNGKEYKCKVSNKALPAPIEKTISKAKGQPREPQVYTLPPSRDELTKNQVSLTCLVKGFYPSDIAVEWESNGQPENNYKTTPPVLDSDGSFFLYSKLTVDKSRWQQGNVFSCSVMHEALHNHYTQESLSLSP
light: B1 light
notes: B3 variant: anti-glypican-3 IgG1 (constant region B3 = G1d with K439E) with one substitution, EU numbering; also called B3 variant Q295Y; copies: 2 + 2
relative binding activity (amount bound / amount bound by GpH7-B3/GpL16-k0 x100) (human FcγRIIIa(F) [1]): 49 % of GpH7-B3/GpL16-k0

B10: GpH7-B3 Q295G / GpL16-k0 (antibody, human IgG1)
heavy: not shown
light: B1 light
notes: B3 variant: anti-glypican-3 IgG1 (constant region B3 = G1d with K439E) with one substitution, EU numbering; also called B3 variant Q295G; copies: 2 + 2
relative binding activity (amount bound / amount bound by GpH7-B3/GpL16-k0 x100) (human FcγRIIIa(F) [1]): 55 % of GpH7-B3/GpL16-k0

B11: GpH7-B3 Q295F / GpL16-k0 (antibody, human IgG1)
heavy: not shown
light: B1 light
notes: B3 variant: anti-glypican-3 IgG1 (constant region B3 = G1d with K439E) with one substitution, EU numbering; also called B3 variant Q295F; copies: 2 + 2
relative binding activity (amount bound / amount bound by GpH7-B3/GpL16-k0 x100) (human FcγRIIIa(F) [1]): 46 % of GpH7-B3/GpL16-k0

B12: GpH7-B3 Q295D / GpL16-k0 (antibody, human IgG1)
heavy: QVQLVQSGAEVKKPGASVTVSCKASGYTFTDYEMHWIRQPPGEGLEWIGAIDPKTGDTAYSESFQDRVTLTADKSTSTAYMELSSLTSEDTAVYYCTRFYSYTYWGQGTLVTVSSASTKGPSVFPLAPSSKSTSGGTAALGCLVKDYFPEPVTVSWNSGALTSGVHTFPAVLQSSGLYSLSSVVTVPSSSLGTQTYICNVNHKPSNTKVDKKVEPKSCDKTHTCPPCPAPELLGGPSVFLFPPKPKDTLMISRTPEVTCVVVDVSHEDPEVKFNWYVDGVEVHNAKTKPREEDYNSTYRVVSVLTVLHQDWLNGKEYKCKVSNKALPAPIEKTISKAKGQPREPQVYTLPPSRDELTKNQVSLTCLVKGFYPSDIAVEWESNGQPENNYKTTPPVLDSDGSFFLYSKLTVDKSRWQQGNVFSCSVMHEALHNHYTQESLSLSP
light: B1 light
notes: B3 variant: anti-glypican-3 IgG1 (constant region B3 = G1d with K439E) with one substitution, EU numbering; also called B3 variant Q295D; copies: 2 + 2
relative binding activity (amount bound / amount bound by GpH7-B3/GpL16-k0 x100) (human FcγRIIIa(F) [1]): 64 % of GpH7-B3/GpL16-k0

B14: GpH7-B3 Q295H / GpL16-k0 (antibody, human IgG1)
heavy: not shown
light: B1 light
notes: B3 variant: anti-glypican-3 IgG1 (constant region B3 = G1d with K439E) with one substitution, EU numbering; also called B3 variant Q295H; copies: 2 + 2
relative binding activity (amount bound / amount bound by GpH7-B3/GpL16-k0 x100) (human FcγRIIIa(F) [1]): 52 % of GpH7-B3/GpL16-k0

B17: GpH7-B3 Q295R / GpL16-k0 (antibody, human IgG1)
heavy: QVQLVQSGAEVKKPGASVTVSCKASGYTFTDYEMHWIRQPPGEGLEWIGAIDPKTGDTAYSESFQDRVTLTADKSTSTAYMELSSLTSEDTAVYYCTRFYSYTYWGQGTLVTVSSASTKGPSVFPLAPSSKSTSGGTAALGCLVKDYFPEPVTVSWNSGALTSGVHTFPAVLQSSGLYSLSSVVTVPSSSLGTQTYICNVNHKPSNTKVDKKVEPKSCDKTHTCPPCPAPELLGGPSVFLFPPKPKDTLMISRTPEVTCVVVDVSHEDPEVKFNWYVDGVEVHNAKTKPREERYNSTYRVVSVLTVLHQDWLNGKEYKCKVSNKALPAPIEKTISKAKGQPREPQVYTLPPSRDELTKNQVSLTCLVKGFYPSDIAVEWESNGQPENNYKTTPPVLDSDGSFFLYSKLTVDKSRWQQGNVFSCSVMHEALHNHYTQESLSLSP
light: B1 light
notes: B3 variant: anti-glypican-3 IgG1 (constant region B3 = G1d with K439E) with one substitution, EU numbering; also called B3 variant Q295R; copies: 2 + 2
relative binding activity (amount bound / amount bound by GpH7-B3/GpL16-k0 x100) (human FcγRIIIa(F) [1]): 52 % of GpH7-B3/GpL16-k0

B18: GpH7-B3 P271Y / GpL16-k0 (antibody, human IgG1)
heavy: not shown
light: B1 light
notes: B3 variant: anti-glypican-3 IgG1 (constant region B3 = G1d with K439E) with one substitution, EU numbering; also called B3 variant P271Y; copies: 2 + 2
relative binding activity (amount bound / amount bound by GpH7-B3/GpL16-k0 x100) (human FcγRIIIa(F) [1]): 33 % of GpH7-B3/GpL16-k0

B19: GpH7-B3 P271S / GpL16-k0 (antibody, human IgG1)
heavy: not shown
light: B1 light
notes: B3 variant: anti-glypican-3 IgG1 (constant region B3 = G1d with K439E) with one substitution, EU numbering; also called B3 variant P271S; copies: 2 + 2
relative binding activity (amount bound / amount bound by GpH7-B3/GpL16-k0 x100) (human FcγRIIIa(F) [1]): 62 % of GpH7-B3/GpL16-k0

B20: GpH7-B3 P271F / GpL16-k0 (antibody, human IgG1)
heavy: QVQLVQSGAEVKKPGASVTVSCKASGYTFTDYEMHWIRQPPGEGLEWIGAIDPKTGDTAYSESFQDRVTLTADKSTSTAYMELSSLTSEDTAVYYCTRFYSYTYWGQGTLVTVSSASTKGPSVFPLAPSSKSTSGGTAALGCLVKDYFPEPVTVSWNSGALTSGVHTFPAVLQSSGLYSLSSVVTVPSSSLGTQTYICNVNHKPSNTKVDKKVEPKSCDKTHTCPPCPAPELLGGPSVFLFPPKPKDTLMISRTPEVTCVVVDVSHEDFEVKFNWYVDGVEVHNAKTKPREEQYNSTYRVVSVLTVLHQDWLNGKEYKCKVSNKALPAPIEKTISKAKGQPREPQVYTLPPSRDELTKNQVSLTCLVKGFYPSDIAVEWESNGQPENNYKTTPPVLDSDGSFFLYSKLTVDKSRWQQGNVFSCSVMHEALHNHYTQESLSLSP
light: B1 light
notes: B3 variant: anti-glypican-3 IgG1 (constant region B3 = G1d with K439E) with one substitution, EU numbering; also called B3 variant P271F; copies: 2 + 2
relative binding activity (amount bound / amount bound by GpH7-B3/GpL16-k0 x100) (human FcγRIIIa(F) [1]): 39 % of GpH7-B3/GpL16-k0

B21: GpH7-B3 P271H / GpL16-k0 (antibody, human IgG1)
heavy: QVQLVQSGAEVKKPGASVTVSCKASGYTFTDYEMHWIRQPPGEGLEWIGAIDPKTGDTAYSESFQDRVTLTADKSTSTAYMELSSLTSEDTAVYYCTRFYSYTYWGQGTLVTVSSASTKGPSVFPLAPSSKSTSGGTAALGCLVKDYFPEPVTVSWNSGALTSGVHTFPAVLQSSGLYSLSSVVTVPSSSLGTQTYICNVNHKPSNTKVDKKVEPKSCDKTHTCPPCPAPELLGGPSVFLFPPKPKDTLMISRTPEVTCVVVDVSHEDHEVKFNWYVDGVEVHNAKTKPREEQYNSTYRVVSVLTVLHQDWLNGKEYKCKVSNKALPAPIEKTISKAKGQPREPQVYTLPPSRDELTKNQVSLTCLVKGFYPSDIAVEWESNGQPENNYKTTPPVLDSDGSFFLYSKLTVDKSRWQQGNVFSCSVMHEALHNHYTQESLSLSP
light: B1 light
notes: B3 variant: anti-glypican-3 IgG1 (constant region B3 = G1d with K439E) with one substitution, EU numbering; also called B3 variant P271H; copies: 2 + 2
relative binding activity (amount bound / amount bound by GpH7-B3/GpL16-k0 x100) (human FcγRIIIa(F) [1]): 50 % of GpH7-B3/GpL16-k0

The next lines start with the values.

relative binding activity (human FcγRIIIa(F) [2]): -1 % of GpH7-B3/GpL16-k0
B2: GpH7-B3/GpL16-k0 with P329T introduced into GpH7-B3 (antibody, human IgG1)
heavy: not shown
light: B1 light
notes: Anti-glypican-3 human IgG1; constant region B3 (G1d with K439E); Fc variant; also called B3 variant; copies: 2 + 2

relative binding activity (amount bound / amount bound by GpH7-B3/GpL16-k0 x100) (human FcγRIIIa(F) [1]): 59 % of GpH7-B3/GpL16-k0
B3: GpH7-B3 S298G / GpL16-k0 (antibody, human IgG1)
heavy: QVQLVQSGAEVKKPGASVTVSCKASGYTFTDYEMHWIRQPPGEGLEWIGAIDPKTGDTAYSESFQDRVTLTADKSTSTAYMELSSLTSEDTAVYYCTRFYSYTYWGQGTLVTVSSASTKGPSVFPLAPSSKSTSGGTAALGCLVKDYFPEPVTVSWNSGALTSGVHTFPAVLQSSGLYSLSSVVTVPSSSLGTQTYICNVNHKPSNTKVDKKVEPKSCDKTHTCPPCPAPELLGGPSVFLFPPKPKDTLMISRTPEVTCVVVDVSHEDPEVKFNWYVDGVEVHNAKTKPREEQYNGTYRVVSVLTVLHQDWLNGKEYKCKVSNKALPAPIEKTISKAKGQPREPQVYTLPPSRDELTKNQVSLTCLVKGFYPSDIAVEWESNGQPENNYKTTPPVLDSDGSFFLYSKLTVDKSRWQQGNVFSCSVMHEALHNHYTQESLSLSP
light: B1 light
notes: B3 variant: anti-glypican-3 IgG1 (constant region B3 = G1d with K439E) with one substitution, EU numbering; also called B3 variant S298G; copies: 2 + 2

relative binding activity (human FcγRIIIa(F) [2]): 74 % of GpH7-B3/GpL16-k0
B5: GpH7-B3/GpL16-k0 with S324K introduced into GpH7-B3 (antibody, human IgG1)
heavy: not shown
light: B1 light
notes: as for B2

relative binding activity (amount bound / amount bound by GpH7-B3/GpL16-k0 x100) (human FcγRIIIa(F) [1]): 0 % of GpH7-B3/GpL16-k0
B8: GpH7-B3 S298P / GpL16-k0 (antibody, human IgG1)
heavy: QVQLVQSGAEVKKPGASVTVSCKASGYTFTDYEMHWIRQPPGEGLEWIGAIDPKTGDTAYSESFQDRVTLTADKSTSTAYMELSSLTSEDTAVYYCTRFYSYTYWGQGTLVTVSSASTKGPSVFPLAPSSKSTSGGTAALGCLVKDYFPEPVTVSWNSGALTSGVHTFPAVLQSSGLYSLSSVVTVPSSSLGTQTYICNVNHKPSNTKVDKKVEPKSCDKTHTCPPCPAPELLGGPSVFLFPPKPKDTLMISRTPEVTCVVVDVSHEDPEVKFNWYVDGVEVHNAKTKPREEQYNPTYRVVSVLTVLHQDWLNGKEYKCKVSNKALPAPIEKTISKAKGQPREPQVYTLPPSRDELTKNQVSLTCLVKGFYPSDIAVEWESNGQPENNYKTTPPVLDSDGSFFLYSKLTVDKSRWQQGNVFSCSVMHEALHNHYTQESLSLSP
light: B1 light
notes: B3 variant: anti-glypican-3 IgG1 (constant region B3 = G1d with K439E) with one substitution, EU numbering; also called B3 variant S298P; copies: 2 + 2

relative binding activity (amount bound / amount bound by GpH7-B3/GpL16-k0 x100) (human FcγRIIIa(F) [1]): 21 % of GpH7-B3/GpL16-k0
B9: GpH7-B3 Y296G / GpL16-k0 (antibody, human IgG1)
heavy: not shown
light: B1 light
notes: B3 variant: anti-glypican-3 IgG1 (constant region B3 = G1d with K439E) with one substitution, EU numbering; also called B3 variant Y296G; copies: 2 + 2

relative binding activity (human FcγRIIIa(F) [2]): 35 % of GpH7-B3/GpL16-k0
B13: GpH7-B3/GpL16-k0 with S324P introduced into GpH7-B3 (antibody, human IgG1)
heavy: not shown
light: B1 light
notes: as for B2

relative binding activity (amount bound / amount bound by GpH7-B3/GpL16-k0 x100) (human FcγRIIIa(F) [1]): 12 % of GpH7-B3/GpL16-k0
B15: GpH7-B3 Y300R / GpL16-k0 (antibody, human IgG1)
heavy: not shown
light: B1 light
notes: B3 variant: anti-glypican-3 IgG1 (constant region B3 = G1d with K439E) with one substitution, EU numbering; also called B3 variant Y300R; copies: 2 + 2

relative binding activity (amount bound / amount bound by GpH7-B3/GpL16-k0 x100) (human FcγRIIIa(F) [1]): 71 % of GpH7-B3/GpL16-k0
B16: GpH7-B3 S298Y / GpL16-k0 (antibody, human IgG1)
heavy: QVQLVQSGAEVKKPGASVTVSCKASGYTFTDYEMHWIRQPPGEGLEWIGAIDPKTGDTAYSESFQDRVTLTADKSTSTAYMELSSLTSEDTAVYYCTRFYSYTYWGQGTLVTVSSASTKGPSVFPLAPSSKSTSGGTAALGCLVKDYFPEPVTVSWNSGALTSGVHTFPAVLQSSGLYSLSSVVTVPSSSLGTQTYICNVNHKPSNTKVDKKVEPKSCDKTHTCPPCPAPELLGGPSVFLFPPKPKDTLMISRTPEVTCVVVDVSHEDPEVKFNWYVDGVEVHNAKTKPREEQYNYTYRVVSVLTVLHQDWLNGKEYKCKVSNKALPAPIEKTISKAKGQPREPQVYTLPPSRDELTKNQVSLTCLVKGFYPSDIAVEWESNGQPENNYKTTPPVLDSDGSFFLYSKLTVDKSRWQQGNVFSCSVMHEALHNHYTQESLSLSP
light: B1 light
notes: B3 variant: anti-glypican-3 IgG1 (constant region B3 = G1d with K439E) with one substitution, EU numbering; also called B3 variant S298Y; copies: 2 + 2

relative binding activity (human FcγRIIIa(F) [2]): -2 % of GpH7-B3/GpL16-k0
B22: GpH7-B3/GpL16-k0 with P329R introduced into GpH7-B3 (antibody, human IgG1)
heavy: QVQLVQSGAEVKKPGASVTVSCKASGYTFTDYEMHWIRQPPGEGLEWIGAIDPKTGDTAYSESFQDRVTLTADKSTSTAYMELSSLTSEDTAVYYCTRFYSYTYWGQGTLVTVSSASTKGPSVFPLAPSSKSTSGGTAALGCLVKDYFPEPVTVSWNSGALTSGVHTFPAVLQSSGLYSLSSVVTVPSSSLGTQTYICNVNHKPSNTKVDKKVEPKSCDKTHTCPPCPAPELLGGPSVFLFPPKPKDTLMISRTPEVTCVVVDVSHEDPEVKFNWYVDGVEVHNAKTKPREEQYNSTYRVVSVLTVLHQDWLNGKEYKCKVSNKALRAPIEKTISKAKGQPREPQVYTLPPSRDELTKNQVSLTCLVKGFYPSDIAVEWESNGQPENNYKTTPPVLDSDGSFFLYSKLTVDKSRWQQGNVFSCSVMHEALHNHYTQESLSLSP
light: B1 light
notes: as for B2
